In the Immune Epitope Database (IEDB):

How the values were obtained:
HLA-A*03:01 [1] = assay: IEDB peptide-MHC binding, purified MHC/competitive/fluorescence; ≥ and ≤ were set here for values at or beyond the usual limits of such assays
HLA-A*02:01 [2] = assay: as above
HLA-B*15:01 [3] = assay: as above
HLA-A*29:02 [4] = assay: IEDB peptide-MHC binding, purified MHC/competitive/fluorescence; filed as Kd, often an IC50 or EC50 that approximates it; ≥ and ≤ were set here for values at or beyond the usual limits of such assays
HLA-B*39:01 = assay: as above
HLA-B*51:01 = assay: as above; conditions: source organism: Pseudomonas aeruginosa PACS2
HLA-A*26:01 = assay: as above
HLA-A*03:01 [5] = assay: as above
HLA-A*69:01 [6] = assay: as above
HLA-B*57:01 [7] = assay: as above; conditions: source organism: Pseudomonas aeruginosa PACS2
HLA-B*27:03 = assay: as above
HLA-A*02:01 [8] = assay: as above
HLA-B*18:01 [9] = assay: as above
HLA-B*46:01 [10] = assay: as above
HLA-A*02:12 [11] = assay: as above; conditions: source organism: Pseudomonas aeruginosa PACS2
HLA-B*58:01 [12] = assay: as above
HLA-B*44:02 = assay: IEDB peptide-MHC binding, purified MHC/direct/fluorescence; filed as Kd, often an IC50 or EC50 that approximates it; ≥ and ≤ were set here for values at or beyond the usual limits of such assays
HLA-A*29:02 [13] = assay: as above
HLA-B*58:01 [14] = assay: as above
HLA-A*03:01 [15] = assay: as above
HLA-A*69:01 [16] = assay: as above
HLA-B*57:01 [17] = assay: as above
HLA-A*31:01 = assay: as above
HLA-A*01:01 = assay: as above
HLA-A*02:01 [18] = assay: as above
HLA-A*11:01 [19] = assay: as above
HLA-B*27:05 = assay: as above
HLA-B*18:01 [20] = assay: as above
HLA-B*08:02 = assay: as above
HLA-B*40:01 = assay: as above
HLA-B*15:01 [21] = assay: as above
HLA-B*46:01 [22] = assay: as above
HLA-A*24:02 = assay: IEDB peptide-MHC binding, purified MHC/competitive/fluorescence; ≥ and ≤ were set here for values at or beyond the usual limits of such assays
HLA-B*15:01 [23] = assay: IEDB peptide-MHC binding, purified MHC/competitive/fluorescence; filed as Kd, often an IC50 or EC50 that approximates it; ≥ and ≤ were set here for values at or beyond the usual limits of such assays; conditions: source organism: Shigella flexneri 5 str. 8401
HLA-A*11:01 [24] = assay: IEDB peptide-MHC binding, purified MHC/competitive/fluorescence; ≥ and ≤ were set here for values at or beyond the usual limits of such assays
HLA-A*02:03 = assay: IEDB peptide-MHC binding, purified MHC/direct/fluorescence; filed as Kd, often an IC50 or EC50 that approximates it; ≥ and ≤ were set here for values at or beyond the usual limits of such assays; conditions: source organism: Zaire ebolavirus
HLA-A*68:02 = assay: as above; conditions: source organism: Zaire ebolavirus
HLA-A*02:16 = assay: as above; conditions: source organism: Zaire ebolavirus
HLA-A*02:11 = assay: as above; conditions: source organism: Zaire ebolavirus
HLA-A*02:19 = assay: as above; conditions: source organism: Zaire ebolavirus
HLA-A*02:12 [25] = assay: as above; conditions: source organism: Zaire ebolavirus
HLA-B*48:01 = assay: as above; conditions: source organism: West Nile virus
HLA-B*08:01 = assay: as above; conditions: source organism: West Nile virus
HLA-B*07:02 = assay: as above; conditions: source organism: West Nile virus
[26] = source organism: Zaire ebolavirus
[27] = source organism: Pseudomonas aeruginosa PACS2
[28] = source organism: Sudan ebolavirus
[29] = source organism: Yersinia pestis Antiqua
[30] = source organism: Yellow fever virus
[31] = source organism: Vaccinia virus
[32] = source organism: Shigella flexneri 5 str. 8401
[33] = source organism: West Nile virus
[34] = source organism: Vaccinia virus WR

LMNFHQKKN
IC50 (HLA-A*03:01 [1]; [26]): ≥ 334 µM | IC50 (HLA-A*02:01 [2]; [26]): ≥ 123 µM | IC50 (HLA-B*15:01 [3]; [26]): ≥ 265 µM

LSAIALGVA
IC50 (HLA-A*02:01 [2]; [26]): 25.8 µM | IC50 (HLA-B*15:01 [3]; [26]): ≥ 140 µM

GMIAGWHGY
Kd (HLA-A*29:02 [4]; source organism: Influenza B virus (B/Victoria/2/1987)): 0.0016 µM

KLIDVSKCI
Kd (HLA-B*39:01; [27]): ≥ 20 µM | Kd (HLA-A*29:02 [4]; [27]): ≥ 20 µM | Kd (HLA-B*51:01): ≥ 20 µM | Kd (HLA-A*26:01; [27]): ≥ 20 µM | Kd (HLA-A*03:01 [5]; [27]): ≥ 20 µM | Kd (HLA-A*69:01 [6]; [27]): ≥ 20 µM | Kd (HLA-B*57:01 [7]): ≥ 20 µM | Kd (HLA-B*27:03; [27]): ≥ 20 µM | Kd (HLA-A*02:01 [8]; [27]): 0.0086 µM | Kd (HLA-B*18:01 [9]; [27]): ≥ 20 µM | Kd (HLA-B*46:01 [10]; [27]): ≥ 20 µM | Kd (HLA-A*02:12 [11]): 0.0109 µM

VVTNSTLEV
IC50 (HLA-A*02:01 [2]; [28]): 7.96 µM | IC50 (HLA-B*15:01 [3]; [28]): ≥ 114 µM

SAYERGLRY
Kd (HLA-B*58:01 [12]; [29]): ≥ 20 µM | Kd (HLA-A*03:01 [5]; [29]): 0.0535 µM

GSRAYRNAL
Kd (HLA-B*44:02; [30]): ≥ 20 µM | Kd (HLA-A*29:02 [13]; [30]): ≥ 20 µM | Kd (HLA-B*58:01 [14]; [30]): ≥ 20 µM | Kd (HLA-A*03:01 [15]; [30]): ≥ 20 µM | Kd (HLA-A*69:01 [16]; [30]): ≥ 20 µM | Kd (HLA-B*57:01 [17]; [30]): ≥ 20 µM | Kd (HLA-A*31:01; [30]): ≥ 20 µM | Kd (HLA-A*01:01; [30]): ≥ 20 µM | Kd (HLA-A*02:01 [18]; [30]): ≥ 20 µM | Kd (HLA-A*11:01 [19]; [30]): ≥ 20 µM | Kd (HLA-B*27:05; [30]): ≥ 20 µM | Kd (HLA-B*18:01 [20]; [30]): ≥ 20 µM | Kd (HLA-B*08:02; [30]): ≥ 20 µM | Kd (HLA-B*40:01; [30]): ≥ 20 µM | Kd (HLA-B*15:01 [21]; [30]): ≥ 20 µM | Kd (HLA-B*46:01 [22]; [30]): ≥ 20 µM

RMNSNQVCI
IC50 (HLA-A*03:01 [1]; [31]): ≥ 118 µM | IC50 (HLA-A*02:01 [2]; [31]): 3.44 µM | IC50 (HLA-A*24:02; [31]): 0.0818 µM | IC50 (HLA-B*15:01 [3]; [31]): 18.1 µM

HLTPAQLSM
Kd (HLA-B*58:01 [12]; [32]): ≥ 5 µM | Kd (HLA-A*02:01 [8]; [32]): 0.301 µM | Kd (HLA-B*15:01 [23]): 1.78 µM

GYYSTTIRY
IC50 (HLA-A*03:01 [1]; [26]): ≥ 300 µM | IC50 (HLA-A*24:02; [26]): 0.831 µM | IC50 (HLA-B*15:01 [3]; [26]): 4.56 µM

VGKTSQVPK
IC50 (HLA-A*03:01 [1]; source organism: Variola virus): 13.5 µM | IC50 (HLA-A*11:01 [24]; source organism: Variola virus): 1.55 µM

WMNHHAITY
Kd (HLA-A*29:02 [4]; source organism: Orientia tsutsugamushi str. Boryong): ≤ 0.0001 µM

ATQVEQHHR
IC50 (HLA-A*03:01 [1]; [26]): ≥ 90.8 µM | IC50 (HLA-A*11:01 [24]; [26]): 5.22 µM

RTYTILNRK
IC50 (HLA-A*03:01 [1]; [28]): 1.05 µM | IC50 (HLA-A*11:01 [24]; [28]): 0.163 µM | IC50 (HLA-A*24:02; [28]): 42.2 µM

KTNDFAPAW
Kd (HLA-A*02:03): ≥ 20 µM | Kd (HLA-A*68:02): ≥ 20 µM | Kd (HLA-A*02:16): ≥ 20 µM | Kd (HLA-A*02:11): ≥ 20 µM | Kd (HLA-A*02:19): ≥ 20 µM | Kd (HLA-B*15:01 [21]; source organism: Ebola virus - Gabon (1994-1997)): ≥ 5 µM | Kd (HLA-A*02:12 [25]): ≥ 20 µM | Kd (HLA-B*39:01; [26]): ≥ 20 µM | Kd (HLA-B*58:01 [12]; [26]): 0.0013 µM | Kd (HLA-A*26:01; [26]): ≥ 20 µM | Kd (HLA-A*69:01 [6]; [26]): ≥ 20 µM | Kd (HLA-B*27:03; [26]): ≥ 20 µM | Kd (HLA-A*02:01 [8]; [26]): ≥ 20 µM | Kd (HLA-B*18:01 [9]; [26]): ≥ 20 µM | Kd (HLA-B*46:01 [10]; [26]): ≥ 20 µM

HILRSQGPF
IC50 (HLA-A*02:01 [2]; [26]): ≥ 519 µM | IC50 (HLA-A*24:02; [26]): 5.72 µM | IC50 (HLA-B*15:01 [3]; [26]): 12.8 µM

KCRVKMEKL
Kd (HLA-B*44:02; [33]): ≥ 20 µM | Kd (HLA-A*29:02 [13]; [33]): ≥ 20 µM | Kd (HLA-B*58:01 [14]; [33]): ≥ 20 µM | Kd (HLA-B*48:01): ≥ 20 µM | Kd (HLA-A*03:01 [15]; [33]): ≥ 20 µM | Kd (HLA-A*69:01 [16]; [33]): ≥ 20 µM | Kd (HLA-B*08:01): ≥ 20 µM | Kd (HLA-B*57:01 [17]; [33]): ≥ 20 µM | Kd (HLA-A*31:01; [33]): ≥ 20 µM | Kd (HLA-A*01:01; [33]): ≥ 20 µM | Kd (HLA-B*07:02): ≥ 20 µM | Kd (HLA-A*02:01 [18]; [33]): ≥ 20 µM | Kd (HLA-A*11:01 [19]; [33]): ≥ 20 µM | Kd (HLA-B*27:05; [33]): ≥ 20 µM | Kd (HLA-B*18:01 [20]; [33]): ≥ 20 µM | Kd (HLA-B*08:02; source organism: West Nile virus strain PTRoxo): ≥ 20 µM | Kd (HLA-B*40:01; [33]): ≥ 20 µM | Kd (HLA-B*15:01 [21]; [33]): ≥ 20 µM | Kd (HLA-B*46:01 [22]; [33]): ≥ 20 µM

MSNGEHVPF
IC50 (HLA-A*24:02; [34]): 5.46 µM | IC50 (HLA-B*15:01 [3]; [34]): 48.7 µM
